Here are results for 2 substances from EP4814000A1.

One experiment concerns the target 003M-P215S-L (RSV). The experiment can be described thus: flow cytometry, Expi293F cells, Lipofectamine 2000-mRNA. (In general: A flow cytometer gives signals particle by particle.)
A further experiment deals with 003M-P215S-L-3N (RSV). The experiment is described as above.
The next experiment addresses 003M-P215S-S (RSV). The description is as above.
For a further experiment, the target named is 003m-P215S (RSV). The experiment is described as above.
The target of another experiment is 003m-P215S-2×GCN4t (RSV). Described as above.
For a further experiment, the target named is 003m-P215S-S-3N. The experiment is described as above.
Experiment [1] deals with 003m-P215S-1×GCN4t (RSV). The experiment is described as above.
The target of a further experiment is 003m-P215S-1×GCN4t-1,3N. Described as above.
The next experiment addresses 003m-P215S-1×GCN4t-1N. The experiment is described as above.
For another experiment, the target named is 003m-P215S-1×GCN4t-2,3N. Described as above.
In experiment [2] the target is 003m-P215S-1×GCN4t (RSV). The experiment is described as above. The source holds these as a separate data set.
Experiment [3] concerns the target 007m-Cys-P215S-1×GCN4t (RSV). The description is as above.
Experiment [4] has as its target 008m-Cys-P215S-1×GCN4t (RSV). Described as above.
Experiment [5] concerns the target 009m-Cys-P215S-1×GCN4t (RSV). Described as above.
The target of experiment [6] is 010m-Cys-P215S-1×GCN4t (RSV). The experiment is described as above.
In the next experiment the target is 011m-Cys-P215S-1×GCN4t. The description is as above.
The target in the next experiment is 012m-Cys-P215S-1×GCN4t. Described as above.
For another experiment, the target named is 013m-Cys-P215S-1×GCN4t. The description is as above.
Experiment [7] deals with wild-type RSV B F (RSV B). The experiment can be described thus: flow cytometry, Expi293F cells, Lipofectamine 2000-mRNA; row WT-RQ1.
In experiment [8] the target is wild-type RSV B F (RSV B). Description: flow cytometry, Expi293F cells, Lipofectamine 2000-mRNA; row WT-RQ2.
The target in experiment [9] is wild-type RSV B F (RSV B). Description: flow cytometry, Expi293F cells, Lipofectamine 2000-mRNA; row WT-RQ3.
The target of experiment [10] is 003m-P215S-1×GCN4t (RSV). The experiment can be described thus: flow cytometry, Expi293F cells, Lipofectamine 2000-mRNA; row 003M-P215S-1×GCNt (ORIG).
Experiment [11] has as its target 003m-P215S-1×GCN4t (RSV). The experiment can be described thus: flow cytometry, Expi293F cells, Lipofectamine 2000-mRNA; row 003m-P215S-1×GCN4t (ORIG).

With AM14-AF488 (antibody), the MFI with 003M-P215S-L (RSV) stood at 4540; with 003M-P215S-L-3N (RSV) it was 17500; in the experiment with 003M-P215S-S (RSV), 5620; in the experiment with 003m-P215S (RSV), 90100; with 003m-P215S-2×GCN4t (RSV) it was 1890; with 003m-P215S-S-3N it was 42400. Further, the MFI in the experiment with 003m-P215S-1×GCN4t (RSV) [1] turned out to be 4870; with 003m-P215S-1×GCN4t-1,3N, 71000; with 003m-P215S-1×GCN4t-1N it was 37400; with 003m-P215S-1×GCN4t-2,3N, 39100; with 003m-P215S-1×GCN4t (RSV) [2], 6700; in experiment [3], 7680. The MFI was found to be 9780 in [4]; 6450 in experiment [5]; 8650 in experiment [6]; 7710 with 011m-Cys-P215S-1×GCN4t; 9390 with 012m-Cys-P215S-1×GCN4t; 7930 with 013m-Cys-P215S-1×GCN4t. Further, the MFI in experiment [7] was 201000; in [8], 206000; in experiment [9], 55800; with 003m-P215S-1×GCN4t (RSV) [10], 2560; with 003m-P215S-1×GCN4t (RSV) [11], 4150.
As for D25-AF488 (antibody), the MFI with 003M-P215S-L (RSV) was 5820; in the experiment with 003M-P215S-L-3N (RSV), 23400; with 003M-P215S-S (RSV), 8920; with 003m-P215S (RSV) it was 77200; with 003m-P215S-2×GCN4t (RSV) it was 2150; in the experiment with 003m-P215S-S-3N it was 48800. In addition, the MFI was found to be 10400 with 003m-P215S-1×GCN4t (RSV) [1]; 122000 in the experiment with 003m-P215S-1×GCN4t-1,3N; 59400 with 003m-P215S-1×GCN4t-1N; 70700 with 003m-P215S-1×GCN4t-2,3N; 12200 with 003m-P215S-1×GCN4t (RSV) [2]; 12800 in experiment [3]. In addition, the MFI is 15700 in experiment [4]; 11500 in experiment [5]; 13400 in [6]; 10300 in the experiment with 011m-Cys-P215S-1×GCN4t; 15800 in the experiment with 012m-Cys-P215S-1×GCN4t; 14600 with 013m-Cys-P215S-1×GCN4t. The MFI in [7] was 132000; in [8] it was 138000; in [9], 36900; in the experiment with 003m-P215S-1×GCN4t (RSV) [10] it was 3840; in the experiment with 003m-P215S-1×GCN4t (RSV) [11] it was 8390.
